Data reported in patent US20210356479A1 (BLOODWORKS, published 2021).

T1: human Kell glycoprotein, Kp^b form (KEL4) (human, UniProt P23276 1-732)
T1 construct: whole, on cells; On human Kp^b/Kp^b RBCs
T1 sequence (looked up): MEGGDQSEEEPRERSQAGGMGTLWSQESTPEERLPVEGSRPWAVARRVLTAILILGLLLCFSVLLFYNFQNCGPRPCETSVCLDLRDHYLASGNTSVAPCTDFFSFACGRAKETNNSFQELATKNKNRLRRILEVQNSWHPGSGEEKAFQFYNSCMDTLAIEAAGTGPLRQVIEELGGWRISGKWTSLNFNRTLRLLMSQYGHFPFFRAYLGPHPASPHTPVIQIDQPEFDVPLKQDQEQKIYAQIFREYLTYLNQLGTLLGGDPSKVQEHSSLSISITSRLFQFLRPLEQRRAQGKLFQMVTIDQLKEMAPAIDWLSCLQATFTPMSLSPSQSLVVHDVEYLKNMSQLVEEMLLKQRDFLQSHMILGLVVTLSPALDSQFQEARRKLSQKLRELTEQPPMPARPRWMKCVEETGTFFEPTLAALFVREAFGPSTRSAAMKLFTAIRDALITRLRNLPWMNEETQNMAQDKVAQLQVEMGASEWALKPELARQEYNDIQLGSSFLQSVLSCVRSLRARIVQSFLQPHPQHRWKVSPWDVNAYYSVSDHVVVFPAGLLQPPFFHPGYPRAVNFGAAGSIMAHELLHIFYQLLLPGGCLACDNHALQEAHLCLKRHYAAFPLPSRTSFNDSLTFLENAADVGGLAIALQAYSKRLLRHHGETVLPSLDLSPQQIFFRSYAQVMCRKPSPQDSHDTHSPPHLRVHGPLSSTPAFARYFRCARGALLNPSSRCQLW

T2: human Kell glycoprotein, K form (KEL1) (human, UniProt P23276 1-732)
T2 construct: whole, on cells; On human K/K or K+k+ RBCs and on RBCs of K transgenic mice; also called K antigen; K variant
T2 sequence (looked up): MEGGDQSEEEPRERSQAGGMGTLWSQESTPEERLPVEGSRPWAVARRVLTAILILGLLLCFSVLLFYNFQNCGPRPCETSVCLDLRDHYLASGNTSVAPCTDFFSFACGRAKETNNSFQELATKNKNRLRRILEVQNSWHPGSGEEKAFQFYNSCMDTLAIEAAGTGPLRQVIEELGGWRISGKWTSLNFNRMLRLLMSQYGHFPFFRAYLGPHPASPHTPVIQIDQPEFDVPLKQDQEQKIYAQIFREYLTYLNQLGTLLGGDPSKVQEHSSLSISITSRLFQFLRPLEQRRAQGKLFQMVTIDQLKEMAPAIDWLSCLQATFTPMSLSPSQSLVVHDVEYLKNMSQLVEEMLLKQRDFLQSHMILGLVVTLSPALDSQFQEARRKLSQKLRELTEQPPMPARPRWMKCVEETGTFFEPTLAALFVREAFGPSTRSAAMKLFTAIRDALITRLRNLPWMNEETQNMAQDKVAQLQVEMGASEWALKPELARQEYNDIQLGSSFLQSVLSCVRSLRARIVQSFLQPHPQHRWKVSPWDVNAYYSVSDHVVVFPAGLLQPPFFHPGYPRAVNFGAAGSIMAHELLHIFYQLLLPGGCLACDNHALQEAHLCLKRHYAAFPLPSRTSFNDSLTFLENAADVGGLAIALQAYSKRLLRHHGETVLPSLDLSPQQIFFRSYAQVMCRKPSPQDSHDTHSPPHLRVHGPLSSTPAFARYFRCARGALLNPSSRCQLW

T3: human Kell glycoprotein, k form (KEL2) (human, UniProt P23276 1-732)
T3 construct: whole, on cells; On human k/k or K-k+ RBCs; also called k antigen
T3 sequence (looked up): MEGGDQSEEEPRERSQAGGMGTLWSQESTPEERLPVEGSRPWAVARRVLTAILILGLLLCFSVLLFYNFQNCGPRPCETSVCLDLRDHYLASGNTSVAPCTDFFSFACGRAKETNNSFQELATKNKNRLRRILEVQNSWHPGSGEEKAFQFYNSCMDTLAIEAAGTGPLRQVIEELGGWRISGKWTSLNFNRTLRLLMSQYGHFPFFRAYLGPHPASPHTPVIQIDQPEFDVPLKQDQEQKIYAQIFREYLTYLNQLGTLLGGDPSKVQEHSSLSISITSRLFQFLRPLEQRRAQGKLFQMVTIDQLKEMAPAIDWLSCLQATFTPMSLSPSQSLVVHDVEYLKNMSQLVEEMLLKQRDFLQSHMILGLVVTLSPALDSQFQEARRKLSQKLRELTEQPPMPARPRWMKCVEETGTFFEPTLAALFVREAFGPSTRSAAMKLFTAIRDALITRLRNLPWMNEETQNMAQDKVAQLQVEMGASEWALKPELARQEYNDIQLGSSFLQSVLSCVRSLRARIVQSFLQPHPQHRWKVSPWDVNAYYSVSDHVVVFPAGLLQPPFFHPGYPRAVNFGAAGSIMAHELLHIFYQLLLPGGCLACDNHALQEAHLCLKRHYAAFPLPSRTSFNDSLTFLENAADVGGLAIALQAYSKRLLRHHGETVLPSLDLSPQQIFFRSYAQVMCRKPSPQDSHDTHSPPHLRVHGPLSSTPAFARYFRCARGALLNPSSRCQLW


Key:
[1] = target: T1, human Kell glycoprotein, Kp^b form …; assay: flow cytometry, indirect immunofluorescence on human RBCs
Experimental: The specificities of the antibodies were determined to be: PUMA ½ (KEL1 or K), PUMA 3 (a common Kell epitope, PUMA 4 (KEL4 or Kp^b). Flow cytometry was utilized to test antibody specificity by indirect immunofluorescence, using the monocolonal antibodies as the primary reagent and a goat-anti-mouse antibody (conjugated to allophycocyanin) as a secondary antibody. Different target cells expressing different Kell variants were used to determine specificity. Targets included RBCs that phenotyped as homozygous for the 3 main antithetical antigens in the Kell system, K/K, k/k, Kp^{b/}Kp^b, Kp^{a/}Kp^a. Js^{b/}J^b, Js^{a/}Js^a. Differential binding to such tarets tests specificity. In the case of PUMA ½, binding was only observed when K was present but not on k/k RBCs. In the case of PUMA 3, binding was observed on all RBCs regardless of phenotype for K/k, Kp^{a/}Kp^{b,} or Js^{a/}Js^b, thus indicating a common epitope outside these systems. However, PUMA 3 bound to only KELL glycoprotein transgenic murine RBCs and not wild-type murine RBCs; thus, the epitope recognized by PUMA 3 is on the KELL molecule, but not K/k, Kp^{a/}Kp^b, or Js^{a/}Js^b. For PUMA 4, binding was only observed when Kp^b was present but not on Kp^{a/}Kp^a RBCs.

[2] = target: T2, human Kell glycoprotein, K form (KEL1); assay: flow cytometry on human K+k+ RBCs, detected with polyclonal anti-IgG
Experimental: Flow cytometry consisted of incubating test RBCs with PUMA 1 variants, followed by the anti-IgG being evaluated, followed by a detection reagent. Test RBCs included RBCs from K mice, wild-type mice, and reagent RBCs from humans with the phenotype of (K+k+) or (K−k+). Test RBCs were resuspended in 50 microliters of supernatants of PUMA 1 isoallotypes; in some cases a 1/10 dilution in phosphate buffered saline (PBS) was used. For purified IgG1-IgG4 PUMA 1, the antibodies were diluted in PBS at the indicated concentrations. The tested anti-IgG reagents were used undiluted. Detection reagents consisted of donkey anti-rabbit conjugated to phycoerythrin at a 1/200 dilution (Affymetrix cat #12-4739-81, Santa Clara, Calif.), goat anti-mouse IgM conjugated to allophycocyanin at a 1/100 dilution (BD Biosciences, cat #550826, San Jose, Calif.), and goat anti-mouse Igs conjugated to allophycocyanin at a 1/100 dilution (SouthernBiotech cat #1020-11s, Birmingham, Ala.). All anti-IgG subclass antibodies were conjugated to phycoerythrin, were purchased from SouthernBiotech (catalog numbers 9056-09, 9070-09, 9210-09, 9200-09), and were used at a dilution of 1.200. All incubations were performed for 30 min at room temperature, followed by three washes with PBS. All flow cytometry was performed on an Accuri 4 color cytometer (BD biosciences, San Jose Calif.) and all data was analyzed with Flo-Jo version 10.
To assess the sensitivity of commercially available anti-IgG preparations for different human IgG subclasses bound to RBCs, K+k+ RBCs were first incubated with PUMA 1 of the different human IgG subclasses, followed by incubation with anti-IgG. Treated RBCs were then stained with a fluorescently labeled antibody specific for the species in which the anti-IgG was generated (and non-reactive with human IgG). For each anti-IgG, the same secondary antibody was used to detect binding of the anti-IgG to each human PUMA 1 IgG subclass. To assess relative sensitivity, titrations of each PUMA 1 IgG subclass were carried out and samples were analyzed by flow cytometry using mean fluorescent intensity (MFI) to quantify staining (FIGS. 28A, 28B).

[3] = target: T3, human Kell glycoprotein, k form (KEL2); assay: flow cytometry on human K-k+ RBCs

| Binder | binding result [1] | binding result [2] | binding result [3] |
| --- | --- | --- | --- |
| PUMA 4 monoclonal antibody (antibody, V domains shown, Mouse monoclonal from hybridoma) VH: EVKLEESGGGLVQPGGSMKLSCVASGFTFSNYWMNWVRQPPEKGLEWVAEIRLNSNNYATHYAESVKGKFTISRDDSKSSVYLQMNDLRAEDTGIYYCTRNWDFAWFDSWGQGTLVTVSA VL: DIVMTQSHKFMSTSVGDRVSITCKASQDVSTVVAWYQQKPGQSPKLLIYWASTRHTGVPDRFTGSGSGTDYTLTISSVQAEDLALYYCQQHYTTPFTFGSGTKLEIK | binds |  |  |
| PUMA 1 human IgG3-14 isoallotype (antibody, Isoallotype named in CLM-00007; not shown: human IgG3 heavy chain constant region, isoallotype IGHG3*14; human kappa light chain constant region (vector pFUSE2-CLIg-hk)) heavy: EVQLQQSGPELVKPGASVKMSCKASGYTFTDYYMKWVKQSHGKSLEWIGDLNPNNGDTFYNQKFKGKATLTVDKSSSTAYIQLNSLTSEDSAVYYCAREAGSSFGSSCNYWGQGTTLTVS light: SVVMTQTPKFLLVSAGDRVTITCKASQTVSKDVAWYQQQPGQSPKLLIYYASNRYTGVPDRFTGSGYGTDFTFTISTVQAEDLAVYFCQQDYSSPYTFGGGTKLEIK |  | binds | no binding |
| PUMA 1 human IgG4-03 isoallotype (antibody, not shown: human IgG4 heavy chain constant region, isoallotype IGHG4*03; human kappa light chain constant region (vector pFUSE2-CLIg-hk)) heavy: EVQLQQSGPELVKPGASVKMSCKASGYTFTDYYMKWVKQSHGKSLEWIGDLNPNNGDTFYNQKFKGKATLTVDKSSSTAYIQLNSLTSEDSAVYYCAREAGSSFGSSCNYWGQGTTLTVS light: SVVMTQTPKFLLVSAGDRVTITCKASQTVSKDVAWYQQQPGQSPKLLIYYASNRYTGVPDRFTGSGYGTDFTFTISTVQAEDLAVYFCQQDYSSPYTFGGGTKLEIK |  | binds | no binding |
| PUMA 1 human IgG3-18 isoallotype (antibody, Isoallotype named in CLM-00007; not shown: human IgG3 heavy chain constant region, isoallotype IGHG3*18; human kappa light chain constant region (vector pFUSE2-CLIg-hk)) heavy: EVQLQQSGPELVKPGASVKMSCKASGYTFTDYYMKWVKQSHGKSLEWIGDLNPNNGDTFYNQKFKGKATLTVDKSSSTAYIQLNSLTSEDSAVYYCAREAGSSFGSSCNYWGQGTTLTVS light: SVVMTQTPKFLLVSAGDRVTITCKASQTVSKDVAWYQQQPGQSPKLLIYYASNRYTGVPDRFTGSGYGTDFTFTISTVQAEDLAVYFCQQDYSSPYTFGGGTKLEIK |  | binds | no binding |
| PUMA 1 human IgG3-19 isoallotype (antibody, Isoallotype named in CLM-00007; not shown: human IgG3 heavy chain constant region, isoallotype IGHG3*19; human kappa light chain constant region (vector pFUSE2-CLIg-hk)) heavy: EVQLQQSGPELVKPGASVKMSCKASGYTFTDYYMKWVKQSHGKSLEWIGDLNPNNGDTFYNQKFKGKATLTVDKSSSTAYIQLNSLTSEDSAVYYCAREAGSSFGSSCNYWGQGTTLTVS light: SVVMTQTPKFLLVSAGDRVTITCKASQTVSKDVAWYQQQPGQSPKLLIYYASNRYTGVPDRFTGSGYGTDFTFTISTVQAEDLAVYFCQQDYSSPYTFGGGTKLEIK |  | binds | no binding |
| PUMA 1 human IgG3-17 isoallotype (antibody, Isoallotype named in CLM-00007; not shown: human IgG3 heavy chain constant region, isoallotype IGHG3*17; human kappa light chain constant region (vector pFUSE2-CLIg-hk)) heavy: EVQLQQSGPELVKPGASVKMSCKASGYTFTDYYMKWVKQSHGKSLEWIGDLNPNNGDTFYNQKFKGKATLTVDKSSSTAYIQLNSLTSEDSAVYYCAREAGSSFGSSCNYWGQGTTLTVS light: SVVMTQTPKFLLVSAGDRVTITCKASQTVSKDVAWYQQQPGQSPKLLIYYASNRYTGVPDRFTGSGYGTDFTFTISTVQAEDLAVYFCQQDYSSPYTFGGGTKLEIK |  | binds | no binding |

Now from value to binder:

| binding result [1] | binding result [2] | binding result [3] | Binder |
| --- | --- | --- | --- |
|  | binds | no binding | PUMA 1 human IgG3-16 isoallotype (antibody, Isoallotype named in CLM-00007; not shown: human IgG3 heavy chain constant region, isoallotype IGHG3*16; human kappa light chain constant region (vector pFUSE2-CLIg-hk)) heavy: EVQLQQSGPELVKPGASVKMSCKASGYTFTDYYMKWVKQSHGKSLEWIGDLNPNNGDTFYNQKFKGKATLTVDKSSSTAYIQLNSLTSEDSAVYYCAREAGSSFGSSCNYWGQGTTLTVS light: SVVMTQTPKFLLVSAGDRVTITCKASQTVSKDVAWYQQQPGQSPKLLIYYASNRYTGVPDRFTGSGYGTDFTFTISTVQAEDLAVYFCQQDYSSPYTFGGGTKLEIK |
|  | binds | no binding | PUMA 1 human IgG4-02 isoallotype (antibody, not shown: human IgG4 heavy chain constant region, isoallotype IGHG4*02; human kappa light chain constant region (vector pFUSE2-CLIg-hk)) heavy: EVQLQQSGPELVKPGASVKMSCKASGYTFTDYYMKWVKQSHGKSLEWIGDLNPNNGDTFYNQKFKGKATLTVDKSSSTAYIQLNSLTSEDSAVYYCAREAGSSFGSSCNYWGQGTTLTVS light: SVVMTQTPKFLLVSAGDRVTITCKASQTVSKDVAWYQQQPGQSPKLLIYYASNRYTGVPDRFTGSGYGTDFTFTISTVQAEDLAVYFCQQDYSSPYTFGGGTKLEIK |
|  | binds | no binding | PUMA 1 human IgG3-15 isoallotype (antibody, Isoallotype named in CLM-00007; not shown: human IgG3 heavy chain constant region, isoallotype IGHG3*15; human kappa light chain constant region (vector pFUSE2-CLIg-hk)) heavy: EVQLQQSGPELVKPGASVKMSCKASGYTFTDYYMKWVKQSHGKSLEWIGDLNPNNGDTFYNQKFKGKATLTVDKSSSTAYIQLNSLTSEDSAVYYCAREAGSSFGSSCNYWGQGTTLTVS light: SVVMTQTPKFLLVSAGDRVTITCKASQTVSKDVAWYQQQPGQSPKLLIYYASNRYTGVPDRFTGSGYGTDFTFTISTVQAEDLAVYFCQQDYSSPYTFGGGTKLEIK |
